From the supplement of paper PMC5998384 come the findings set out here.

Data set [1] deals with HeLa Kyoto. The data set can be described thus: solubility change mitosis vs G1/S (difference of NP-40 vs SDS log2 ratios) (log2 ratio difference); higher = more soluble in mitosis.
Data set [2] relates to HeLa Kyoto. The data set can be described thus: thermal stability score vs G1/S (z-score of summed log2 fold changes over temperatures); higher = more thermally stable than in G1/S.
In data set [3] the test system is HeLa Kyoto. The data set can be described thus: solubility in G1/S (NP-40 vs SDS abundance) (log2 ratio); higher = more soluble. Particulars: cell cycle stage: G1/S.
The subject of data set [4] is HeLa Kyoto. Description: melting temperature (median over replicates), in situ; higher = more thermally stable.
The mark [5] stands for this setting: cell cycle stage: early G1 (4.5 h after nocodazole release).
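For melting temperature (median over replicates), in situ in this document: HeLa Kyoto cells synchronized by double thymidine or nocodazole block, proteins quantified by TMT10plex mass spectrometry, three independent biological replicates.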
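For solubility change mitosis vs G1/S (difference of NP-40 vs SDS log2 ratios) in this document: synchronized HeLa Kyoto cells (double thymidine block for G1/S, nocodazole release for mitosis), protein amounts in NP-40 versus SDS lysates quantified by mass spectrometry, three biological replicates.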
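For solubility in G1/S (NP-40 vs SDS abundance) in this document: HeLa Kyoto cells arrested at G1/S by double thymidine block, proteins quantified by TMT10plex mass spectrometry in mild NP-40 versus SDS extracts, three biological replicates.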
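For thermal stability score vs G1/S (z-score of summed log2 fold changes over temperatures) in this document: synchronized HeLa Kyoto cells, proteins quantified by TMT10plex mass spectrometry, three biological replicates, mitosis taken 0.5 h after nocodazole release, G1/S directly after double thymidine block.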

With “MACSIVQFCYFQDLQAARDFLFPHLREEILSGALRRDPSKSTDWEDDGWGAWEENEPQEPEEEGNTCKTQKTSWLQDCVLSLSPTNDLMVIAREQKAVFLVPKWKYSDKGKEEMQFAVGWSGSLNVEEGECVTSALCIPLASQKRSSTGRPDWTCIVVGFTSGYVRFYTENGVLLLAQLLNEDPVLQLKCRTYEIPRHPGVTEQNEELSILYPAAIVTIDGFSLFQSLRACRNQVAKAAASGNENIQPPPLAYKKWGLQDIDTIIDHASVGIMTLSPFDQMKTASNIGGFNAAIKNSPPAMSQYITVGSNPFTGFFYALEGSTQPLLSHVALAVASKLTSALFNAASGWLGWKSKHEEEAVQKQKPKVEPATPLAVRFGLPDSRRHGESICLSPCNTLAAVTDDFGRVILLDVARGIAIRMWKGYRDAQIGWIQTVEDLHERVPEKADFSPFGNSQGPSRVAQFLVIYAPRRGILEVWSTQQGPRVGAFNVGKHCRLLYPGYKIMGLNNVTSQSWQPQTYQICLVDPVSGSVKTVNVPFHLALSDKKSERAKDMHLVKKLAALLKTKSPNLDLVETEIKELILDIKYPATKKQALESILASERLPFSCLRNITQTLMDTLKSQELESVDEGLLQFCANKLKLLQLYESVSQLNSLDFHLDTPFSDNDLALLLRLDEKELLKLQALLEKYKQENTRTNVRFSDDKDGVLPVKTFLEYLEYEKDVLNIKKISEEEYVALGSFFFWKCLHGESSTEDMCHTLESAGLSPQLLLSLLLSVWLSKEKDILDKPQSICCLHTMLSLLSKMKVAIDETWDSQSVSPWWQQMRTACIQSENNGAALLSAHVGHSVAAQISNNMTEKKFSQTVLGADSEALTDSWEALSLDTEYWKLLLKQLEDCLILQTLLHSKGNTQTSKVSSLQAEPLPRLSVKKLLEGGKGGIADSVAKWIFKQDFSPEVLKLANEERDAENPDEPKEGVNRSFLEVSEMEMDLGAIPDLLHLAYEQFPCSLELDVLHAHCCWEYVVQWNKDPEEARFFVRSIEHLKQIFNAHVQNGIALMMWNTFLVKRFSAATYLMDKVGKSPKDRLCRRDVGMSDTAMTSFLGSCLDLLQILMEADVSRDEIQVPVLDTEDAWLSVEGPISIVELALEQKHIHYPLVEHHSILCSILYAVMRFSLKTVKPLSLFDSKGKNAFFKDLTSIQLLPSGEMDPNFISVRQQFLLKVVSAAVQAQHSATKVKDPTEEATPTPFGKDQDWPALAVDLAHHLQVSEDVVRRHYVGELYNYGVDHLGEEAILQVHDKEVLASQLLVLTGQRLAHALLHTQTKEGMELLARLPPTLCTWLKAMDPQDLQNTEVPIATTAKLVNKVIELLPEKHGQYGLALHLIEAVEAISLPSL [RAB3GAP2]”, in data set [1], the “solubility change mitosis (log2)” value is -0.143. Further, the figures for the thermal stability score in data set [2] (setting [5]) and in data set [2] (cell cycle stage: mitosis) were 1.1 and 1.85, respectively. Besides, in data set [3], the “solubility in G1/S (log2)” value turned out to be 0.0196. Further, the melting temperature turned out to be 48.7 °C in data set [4] (cell cycle stage: G1/S) and 49.2 °C in data set [4] (cell cycle stage: mitosis).
In the case of “MADAFGDELFSVFEGDSTTAAGTKKDKEKDKGKWKGPPGSADKAGKRFDGKLQSESTNNGKNKRDVDFEGTDEPIFGKKPRIEESITEDLSLADLMPRVKVQSVETVEGCTHEVALPAEEDYLPLKPRVGKAAKEYPFILDAFQREAIQCVDNNQSVLVSAHTSAGKTVCAEYAIALALREKQRVIFTSPIKALSNQKYREMYEEFQDVGLMTGDVTINPTASCLVMTTEILRSMLYRGSEVMREVAWVIFDEIHYMRDSERGVVWEETIILLPDNVHYVFLSATIPNARQFAEWICHLHKQPCHVIYTDYRPTPLQHYIFPAGGDGLHLVVDENGDFREDNFNTAMQVLRDAGDLAKGDQKGRKGGTKGPSNVFKIVKMIMERNFQPVIIFSFSKKDCEAYALQMTKLDFNTDEEKKMVEEVFSNAIDCLSDEDKKLPQVEHVLPLLKRGIGIHHGGLLPILKETIEILFSEGLIKALFATETFAMGINMPARTVLFTNARKFDGKDFRWISSGEYIQMSGRAGRRGMDDRGIVILMVDEKMSPTIGKQLLKGSADPLNSAFHLTYNMVLNLLRVEEINPEYMLEKSFYQFQHYRAIPGVVEKVKNSEEQYNKIVIPNEESVVIYYKIRQQLAKLGKEIEEYIHKPKYCLPFLQPGRLVKVKNEGDDFGWGVVVNFSKKSNVKPNSGELDPLYVVEVLLRCSKESLKNSATEAAKPAKPDEKGEMQVVPVLVHLLSAISSVRLYIPKDLRPVDNRQSVLKSIQEVQKRFPDGIPLLDPIDDMGIQDQGLKKVIQKVEAFEHRMYSHPLHNDPNLETVYTLCEKKAQIAIDIKSAKRELKKARTVLQMDELKCRKRVLRRLGFATSSDVIEMKGRVACEISSADELLLTEMMFNGLFNDLSAEQATALLSCFVFQENSSEMPKLTEQLAGPLRQMQECAKRIAKVSAEAKLEIDEETYLSSFKPHLMDVVYTWATGATFAHICKMTDVFEGSIIRCMRRLEELLRQMCQAAKAIGNTELENKFAEGITKIKRDIVFAASLYL [SKIV2L2]”, in data set [1], the “solubility change mitosis (log2)” value stood at 0.119. The values for the thermal stability score in data set [2] (setting [5]) and in data set [2] (cell cycle stage: mitosis) were 0.414 and -1.19, respectively. Moreover, the “solubility in G1/S (log2)” value in data set [3] was -0.515. Moreover, the figures for the melting temperature in data set [4] (cell cycle stage: G1/S) and in data set [4] (cell cycle stage: mitosis) were 51.3 °C and 51.2 °C, respectively.
Regarding “MADDIDIEAMLEAPYKKDENKLSSANGHEERSKKRKKSKSRSRSHERKRSKSKERKRSRDRERKKSKSRERKRSRSKERRRSRSRSRDRRFRGRYRSPYSGPKFNSAIRGKIGLPHSIKLSRRRSRSKSPFRKDKSPVREPIDNLTPEERDARTVFCMQLAARIRPRDLEEFFSTVGKVRDVRMISDRNSRRSKGIAYVEFVDVSSVPLAIGLTGQRVLGVPIIVQASQAEKNRAAAMANNLQKGSAGPMRLYVGSLHFNITEDMLRGIFEPFGRIESIQLMMDSETGRSKGYGFITFSDSECAKKALEQLNGFELAGRPMKVGHVTERTDASSASSFLDSDELERTGIDLGTTGRLQLMARLAEGTGLQIPPAAQQALQMSGSLAFGAVAEFSFVIDLQTRLSQQTEASALAAAASVQPLATQCFQLSNMFNPQTEEEVGWDTEIKDDVIEECNKHGGVIHIYVDKNSAQGNVYVKCPSIAAAIAAVNALHGRWFAGKMITAAYVPLPTYHNLFPDSMTATQLLVPSRR [RBM39]”, the “solubility change mitosis (log2)” value in data set [1] was 0.531. The thermal stability score in data set [2] (setting [5]) was 1.15; in data set [2] (cell cycle stage: mitosis), 5.82. Moreover, the “solubility in G1/S (log2)” value in data set [3] was -1.07. The results for the melting temperature in data set [4] (cell cycle stage: G1/S) and in data set [4] (cell cycle stage: mitosis) were 47.2 °C and 49.3 °C, respectively.
For the sequence “MADEELEALRRQRLAELQAKHGDPGDAAQQEAKHREAEMRNSILAQVLDQSARARLSNLALVKPEKTKAVENYLIQMARYGQLSEKVSEQGLIEILKKVSQQTEKTTTVKFNRRKVMDSDEDDDY [PDCD5]”, the “solubility change mitosis (log2)” value in data set [1] was 0.568. The thermal stability score in data set [2] (setting [5]) is -5.9; in data set [2] (cell cycle stage: mitosis) it was -7.32. In addition, in data set [3], the “solubility in G1/S (log2)” value was -0.112. The melting temperature in data set [4] (cell cycle stage: G1/S) turned out to be 54.3 °C; in data set [4] (cell cycle stage: mitosis), 52.3 °C.
As to “MADFLPSRSVLSVCFPGCLLTSGEAEQQRKSKEIDKCLSREKTYVKRLVKILLLGAGESGKSTFLKQMRIIHGQDFDQRAREEFRPTIYSNVIKGMRVLVDAREKLHIPWGDNSNQQHGDKMMSFDTRAPMAAQGMVETRVFLQYLPAIRALWADSGIQNAYDRRREFQLGESVKYFLDNLDKLGEPDYIPSQQDILLARRPTKGIHEYDFEIKNVPFKMVDVGGQRSERKRWFECFDSVTSILFLVSSSEFDQVLMEDRLTNRLTESLNIFETIVNNRVFSNVSIILFLNKTDLLEEKVQIVSIKDYFLEFEGDPHCLRDVQKFLVECFRNKRRDQQQKPLYHHFTTAINTENIRLVFRDVKDTILHDNLKQLMLQ [GNA13]”, the “solubility change mitosis (log2)” value in data set [1] is -0.27. Further, the values for the thermal stability score in data set [2] (setting [5]) and in data set [2] (cell cycle stage: mitosis) were 1.07 and 1.56, respectively. Further, the “solubility in G1/S (log2)” value in data set [3] is -0.176. Moreover, the melting temperature in data set [4] (cell cycle stage: G1/S) was 53.7 °C; in data set [4] (cell cycle stage: mitosis), 53.5 °C.
